Assays:
Assay in all cases: Kinase Profiling Assay
Assay type in all cases: biochemical
Conditions in all cases: 100 μM
Bmx(h) = target: T1, Bmx(h) (Homo sapiens, UniProt P51813)
T1 sequence (P51813 1-675): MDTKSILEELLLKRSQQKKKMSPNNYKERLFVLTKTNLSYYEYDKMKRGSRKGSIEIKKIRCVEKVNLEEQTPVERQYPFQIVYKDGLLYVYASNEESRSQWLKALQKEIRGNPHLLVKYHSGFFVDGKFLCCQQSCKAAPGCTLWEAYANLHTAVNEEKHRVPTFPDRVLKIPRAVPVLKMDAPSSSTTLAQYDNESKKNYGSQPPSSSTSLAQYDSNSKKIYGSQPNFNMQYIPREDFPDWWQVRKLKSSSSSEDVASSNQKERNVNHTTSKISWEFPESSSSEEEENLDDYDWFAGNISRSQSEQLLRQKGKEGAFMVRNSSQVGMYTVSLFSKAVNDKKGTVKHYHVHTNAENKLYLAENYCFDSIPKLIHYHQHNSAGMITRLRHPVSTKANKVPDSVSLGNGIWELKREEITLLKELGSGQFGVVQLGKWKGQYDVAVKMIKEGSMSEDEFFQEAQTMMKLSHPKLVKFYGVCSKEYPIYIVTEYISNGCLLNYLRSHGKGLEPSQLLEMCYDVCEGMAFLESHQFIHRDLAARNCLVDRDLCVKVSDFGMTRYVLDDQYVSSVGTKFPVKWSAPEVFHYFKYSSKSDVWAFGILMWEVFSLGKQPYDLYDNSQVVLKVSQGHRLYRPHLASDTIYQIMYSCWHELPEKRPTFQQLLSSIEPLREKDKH

CaMKIIδ(h) = CaMKIIδ(h) (Homo sapiens, UniProt Q13557)
Chain of CaMKIIδ(h) (Q13557 whole entry): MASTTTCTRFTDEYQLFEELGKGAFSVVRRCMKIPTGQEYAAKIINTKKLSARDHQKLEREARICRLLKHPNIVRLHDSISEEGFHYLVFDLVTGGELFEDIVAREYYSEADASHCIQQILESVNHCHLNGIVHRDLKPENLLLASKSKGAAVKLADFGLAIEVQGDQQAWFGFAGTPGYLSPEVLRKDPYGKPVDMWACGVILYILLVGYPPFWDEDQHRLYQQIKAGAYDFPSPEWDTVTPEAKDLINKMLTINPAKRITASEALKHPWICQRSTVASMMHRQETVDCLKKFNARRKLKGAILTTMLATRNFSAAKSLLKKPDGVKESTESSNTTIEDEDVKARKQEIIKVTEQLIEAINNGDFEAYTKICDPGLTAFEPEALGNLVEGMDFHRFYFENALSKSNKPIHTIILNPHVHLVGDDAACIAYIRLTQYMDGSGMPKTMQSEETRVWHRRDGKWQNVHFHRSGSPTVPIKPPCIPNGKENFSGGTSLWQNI

CK1δ(h) = CK1δ(h) (Homo sapiens, UniProt P48730)
DYRK2(h) = target: T2, DYRK2(h) (Homo sapiens, UniProt Q92630)
T2 sequence (Q92630 1-601): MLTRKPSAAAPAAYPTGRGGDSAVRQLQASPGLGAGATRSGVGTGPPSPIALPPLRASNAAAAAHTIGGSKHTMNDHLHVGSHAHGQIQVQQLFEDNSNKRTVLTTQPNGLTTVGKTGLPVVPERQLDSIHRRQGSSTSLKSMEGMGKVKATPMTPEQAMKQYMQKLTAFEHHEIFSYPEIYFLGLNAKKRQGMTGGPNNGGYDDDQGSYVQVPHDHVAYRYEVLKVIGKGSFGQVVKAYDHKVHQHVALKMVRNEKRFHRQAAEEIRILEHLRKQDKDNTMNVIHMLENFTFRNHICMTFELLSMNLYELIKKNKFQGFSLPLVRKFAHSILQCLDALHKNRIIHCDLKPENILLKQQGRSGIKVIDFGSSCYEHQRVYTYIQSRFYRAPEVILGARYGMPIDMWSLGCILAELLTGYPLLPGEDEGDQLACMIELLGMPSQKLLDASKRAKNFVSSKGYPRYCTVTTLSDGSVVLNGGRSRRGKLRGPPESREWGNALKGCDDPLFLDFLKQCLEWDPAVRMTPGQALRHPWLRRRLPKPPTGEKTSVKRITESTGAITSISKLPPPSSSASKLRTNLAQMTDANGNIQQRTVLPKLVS

ErbB4(h) = ErbB4(h) (Homo sapiens, UniProt Q15303)
Chain of ErbB4(h) (Q15303 26-1308): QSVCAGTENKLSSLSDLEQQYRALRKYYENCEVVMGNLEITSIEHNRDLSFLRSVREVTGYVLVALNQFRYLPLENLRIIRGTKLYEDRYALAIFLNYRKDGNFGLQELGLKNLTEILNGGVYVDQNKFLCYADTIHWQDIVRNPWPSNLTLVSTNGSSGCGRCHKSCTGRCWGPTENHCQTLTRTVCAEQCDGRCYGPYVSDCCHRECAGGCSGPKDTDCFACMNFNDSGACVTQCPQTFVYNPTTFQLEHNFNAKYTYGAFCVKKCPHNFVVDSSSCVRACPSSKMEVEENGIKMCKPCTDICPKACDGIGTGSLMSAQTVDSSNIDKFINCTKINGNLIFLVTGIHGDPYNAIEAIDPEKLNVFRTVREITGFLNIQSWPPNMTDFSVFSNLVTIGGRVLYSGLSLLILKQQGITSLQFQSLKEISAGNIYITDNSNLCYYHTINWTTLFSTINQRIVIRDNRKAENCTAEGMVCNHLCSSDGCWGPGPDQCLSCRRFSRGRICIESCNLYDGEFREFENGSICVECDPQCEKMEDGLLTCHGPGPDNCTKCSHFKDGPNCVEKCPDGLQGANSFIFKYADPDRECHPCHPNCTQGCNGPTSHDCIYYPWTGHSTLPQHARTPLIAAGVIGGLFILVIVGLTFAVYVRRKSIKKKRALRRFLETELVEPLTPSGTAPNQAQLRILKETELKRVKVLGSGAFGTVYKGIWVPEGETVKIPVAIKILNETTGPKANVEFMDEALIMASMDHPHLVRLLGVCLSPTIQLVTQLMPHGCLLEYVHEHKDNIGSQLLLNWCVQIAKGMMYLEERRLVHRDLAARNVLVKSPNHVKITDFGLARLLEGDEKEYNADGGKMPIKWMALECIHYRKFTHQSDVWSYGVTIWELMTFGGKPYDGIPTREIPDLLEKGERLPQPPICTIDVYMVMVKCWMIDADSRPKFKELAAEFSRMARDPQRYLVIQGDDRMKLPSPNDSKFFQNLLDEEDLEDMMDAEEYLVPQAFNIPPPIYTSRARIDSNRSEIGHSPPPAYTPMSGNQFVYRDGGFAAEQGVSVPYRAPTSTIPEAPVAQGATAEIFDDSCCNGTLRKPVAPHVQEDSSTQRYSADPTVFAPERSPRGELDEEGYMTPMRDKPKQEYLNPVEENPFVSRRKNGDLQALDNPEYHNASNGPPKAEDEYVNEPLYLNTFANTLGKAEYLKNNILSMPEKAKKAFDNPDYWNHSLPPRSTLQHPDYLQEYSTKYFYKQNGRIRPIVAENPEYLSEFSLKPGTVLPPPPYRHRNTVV

IRR(h) = IRR(h) (Homo sapiens, UniProt P14616)
Chain of IRR(h) (P14616 27-1297): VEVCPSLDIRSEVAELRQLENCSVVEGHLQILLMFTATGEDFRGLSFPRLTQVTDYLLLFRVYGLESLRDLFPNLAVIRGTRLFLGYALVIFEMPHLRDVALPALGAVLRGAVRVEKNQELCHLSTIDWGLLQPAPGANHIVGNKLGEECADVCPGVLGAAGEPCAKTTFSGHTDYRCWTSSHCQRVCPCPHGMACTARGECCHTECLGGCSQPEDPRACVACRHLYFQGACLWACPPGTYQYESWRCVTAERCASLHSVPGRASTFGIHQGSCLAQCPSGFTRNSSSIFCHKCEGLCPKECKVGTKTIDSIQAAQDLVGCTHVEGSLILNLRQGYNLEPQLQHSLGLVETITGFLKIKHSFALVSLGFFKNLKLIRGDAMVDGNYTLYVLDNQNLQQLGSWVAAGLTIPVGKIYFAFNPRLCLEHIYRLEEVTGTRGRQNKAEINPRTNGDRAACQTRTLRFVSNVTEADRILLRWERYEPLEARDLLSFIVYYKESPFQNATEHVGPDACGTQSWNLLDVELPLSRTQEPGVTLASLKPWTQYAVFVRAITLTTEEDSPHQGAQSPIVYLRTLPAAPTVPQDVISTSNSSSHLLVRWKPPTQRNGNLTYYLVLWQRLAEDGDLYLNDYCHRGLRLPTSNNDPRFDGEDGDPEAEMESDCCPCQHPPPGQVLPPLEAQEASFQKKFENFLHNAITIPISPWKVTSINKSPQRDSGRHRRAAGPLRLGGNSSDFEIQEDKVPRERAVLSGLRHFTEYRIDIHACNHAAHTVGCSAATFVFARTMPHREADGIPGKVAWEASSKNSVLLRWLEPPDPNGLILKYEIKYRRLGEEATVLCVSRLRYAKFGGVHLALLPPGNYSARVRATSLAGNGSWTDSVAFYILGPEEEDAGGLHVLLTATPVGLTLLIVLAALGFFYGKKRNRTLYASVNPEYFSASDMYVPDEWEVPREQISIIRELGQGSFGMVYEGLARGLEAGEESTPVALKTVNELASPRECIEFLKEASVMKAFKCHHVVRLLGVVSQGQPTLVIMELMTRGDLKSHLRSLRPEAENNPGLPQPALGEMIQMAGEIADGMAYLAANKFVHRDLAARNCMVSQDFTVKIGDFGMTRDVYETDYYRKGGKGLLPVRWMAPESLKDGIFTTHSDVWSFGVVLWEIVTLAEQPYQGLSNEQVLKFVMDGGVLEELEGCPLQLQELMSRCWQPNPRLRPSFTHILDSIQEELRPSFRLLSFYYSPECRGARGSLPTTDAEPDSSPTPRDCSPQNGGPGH

Lck(h) activated = Lck(h) activated (Homo sapiens, UniProt P06239)
Chain of Lck(h) activated (P06239 whole entry): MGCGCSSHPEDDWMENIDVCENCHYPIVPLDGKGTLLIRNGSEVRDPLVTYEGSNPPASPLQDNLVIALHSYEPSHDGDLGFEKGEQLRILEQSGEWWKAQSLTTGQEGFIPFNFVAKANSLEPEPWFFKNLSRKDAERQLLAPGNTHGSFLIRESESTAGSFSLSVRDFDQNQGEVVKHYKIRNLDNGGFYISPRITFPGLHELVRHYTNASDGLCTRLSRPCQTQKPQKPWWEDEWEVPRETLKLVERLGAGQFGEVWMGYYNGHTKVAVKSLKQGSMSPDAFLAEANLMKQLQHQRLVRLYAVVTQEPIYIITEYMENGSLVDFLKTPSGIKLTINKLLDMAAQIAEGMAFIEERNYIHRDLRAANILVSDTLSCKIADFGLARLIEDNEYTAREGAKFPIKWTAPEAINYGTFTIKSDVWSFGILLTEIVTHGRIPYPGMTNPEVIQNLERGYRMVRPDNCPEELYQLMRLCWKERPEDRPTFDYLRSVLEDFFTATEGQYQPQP

PASK(h) = PASK(h) (Homo sapiens, UniProt Q96RG2)
PKCμ(h) = target: T3, PKCμ(h) (Homo sapiens, UniProt Q15139)
T3 sequence (Q15139 1-912): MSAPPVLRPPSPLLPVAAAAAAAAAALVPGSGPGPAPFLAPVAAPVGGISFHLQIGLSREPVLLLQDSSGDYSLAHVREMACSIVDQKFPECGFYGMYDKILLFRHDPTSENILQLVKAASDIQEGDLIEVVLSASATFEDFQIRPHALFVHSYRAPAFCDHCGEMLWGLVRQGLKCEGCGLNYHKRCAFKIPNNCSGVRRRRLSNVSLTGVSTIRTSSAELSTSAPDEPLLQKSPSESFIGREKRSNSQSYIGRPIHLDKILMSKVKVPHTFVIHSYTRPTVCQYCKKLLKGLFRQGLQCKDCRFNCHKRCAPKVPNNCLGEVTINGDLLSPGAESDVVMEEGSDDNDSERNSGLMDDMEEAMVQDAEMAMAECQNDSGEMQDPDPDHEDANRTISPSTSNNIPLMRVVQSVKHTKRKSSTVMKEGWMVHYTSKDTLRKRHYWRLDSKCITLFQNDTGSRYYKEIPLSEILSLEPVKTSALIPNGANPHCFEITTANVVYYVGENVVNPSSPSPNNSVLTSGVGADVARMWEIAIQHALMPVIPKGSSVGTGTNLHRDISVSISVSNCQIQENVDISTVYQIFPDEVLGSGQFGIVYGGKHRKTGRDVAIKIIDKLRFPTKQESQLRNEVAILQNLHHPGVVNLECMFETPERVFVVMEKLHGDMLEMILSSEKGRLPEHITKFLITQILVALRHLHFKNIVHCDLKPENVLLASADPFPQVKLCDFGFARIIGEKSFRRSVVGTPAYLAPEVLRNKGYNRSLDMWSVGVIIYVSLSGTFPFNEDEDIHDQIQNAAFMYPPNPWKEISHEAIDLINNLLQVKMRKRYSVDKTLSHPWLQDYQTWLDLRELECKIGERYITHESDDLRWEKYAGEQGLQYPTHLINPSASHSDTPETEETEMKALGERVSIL

Pyk2(h) = Pyk2(h) (Homo sapiens, UniProt Q14289)
ROCK-II(h) = ROCK-II(h) (Homo sapiens, UniProt O75116)
SAPK2a(h) = SAPK2a(h) (Homo sapiens, UniProt Q16539)
SIK(h) = SIK(h) (Homo sapiens, UniProt P57059)
Chain of SIK(h) (P57059 whole entry): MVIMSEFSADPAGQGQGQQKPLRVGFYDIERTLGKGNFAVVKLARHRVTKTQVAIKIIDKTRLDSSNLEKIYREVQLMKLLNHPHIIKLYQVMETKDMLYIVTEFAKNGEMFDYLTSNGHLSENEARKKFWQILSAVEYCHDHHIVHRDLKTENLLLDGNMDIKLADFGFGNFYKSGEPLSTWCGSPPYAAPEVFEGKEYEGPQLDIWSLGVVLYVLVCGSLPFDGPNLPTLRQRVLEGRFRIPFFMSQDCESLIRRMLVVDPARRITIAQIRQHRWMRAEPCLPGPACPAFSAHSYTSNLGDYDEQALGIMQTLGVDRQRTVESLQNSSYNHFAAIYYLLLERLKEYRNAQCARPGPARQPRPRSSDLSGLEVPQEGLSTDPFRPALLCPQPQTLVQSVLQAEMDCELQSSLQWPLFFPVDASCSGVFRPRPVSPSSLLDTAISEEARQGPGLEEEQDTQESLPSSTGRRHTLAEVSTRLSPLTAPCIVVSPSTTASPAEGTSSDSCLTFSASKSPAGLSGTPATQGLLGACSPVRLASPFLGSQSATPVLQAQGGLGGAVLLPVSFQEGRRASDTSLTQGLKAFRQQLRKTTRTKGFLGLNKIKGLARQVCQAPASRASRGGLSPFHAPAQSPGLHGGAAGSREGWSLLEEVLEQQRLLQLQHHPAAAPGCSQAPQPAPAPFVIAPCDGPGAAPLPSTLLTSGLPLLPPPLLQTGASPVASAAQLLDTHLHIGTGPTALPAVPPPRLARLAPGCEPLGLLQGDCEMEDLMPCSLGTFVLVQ

VRK2(h) = VRK2(h) (Homo sapiens, UniProt Q86Y07)
Chain of VRK2(h) (Q86Y07 whole entry): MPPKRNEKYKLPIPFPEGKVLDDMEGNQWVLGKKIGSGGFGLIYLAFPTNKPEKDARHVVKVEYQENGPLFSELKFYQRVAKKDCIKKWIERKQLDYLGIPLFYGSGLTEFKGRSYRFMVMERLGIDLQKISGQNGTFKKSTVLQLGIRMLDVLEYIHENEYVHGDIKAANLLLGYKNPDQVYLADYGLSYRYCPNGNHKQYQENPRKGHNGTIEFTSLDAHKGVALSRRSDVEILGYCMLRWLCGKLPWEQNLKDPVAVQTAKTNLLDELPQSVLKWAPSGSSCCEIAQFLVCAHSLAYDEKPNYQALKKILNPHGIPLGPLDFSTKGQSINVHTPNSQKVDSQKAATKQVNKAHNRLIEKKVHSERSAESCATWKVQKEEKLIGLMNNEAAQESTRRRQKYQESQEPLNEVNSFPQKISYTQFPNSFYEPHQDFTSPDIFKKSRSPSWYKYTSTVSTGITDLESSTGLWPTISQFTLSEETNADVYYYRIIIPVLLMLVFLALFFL

Sequence	% activity (Bmx(h)) [%]	% activity (CaMKIIδ(h)) [%]	% activity (CK1δ(h)) [%]	% activity (DYRK2(h)) [%]	% activity (ErbB4(h)) [%]	% activity (IRR(h)) [%]	% activity (Lck(h) activated) [%]	% activity (PASK(h)) [%]	% activity (PKCμ(h)) [%]	% activity (Pyk2(h)) [%]	% activity (ROCK-II(h)) [%]	% activity (SAPK2a(h)) [%]	% activity (SIK(h)) [%]	% activity (VRK2(h)) [%]
HRRIKAWLKKIKALARQLGVAA [MMI-0500]	45	1	78	127	2	10	76	9	10	46	2	52	40	169
YARAAARQARAKALNRQLGVA [MMI-0200]	76	2	92	142	82	69	90	60	73	127	85			
KAFAKLAARLYRKALARQLGVAA [MMI-0400]	26	2	93	195	0	8	216	28	14	34	77	85	68	185
FAKLAARLYRKALARQLGVAA [MMI-0300]		1	92	155	40	8	243	29	22	47	74	90	66	161

Reference: patent US20190134153A1, “IMMUNOMODULATORY EFFECT OF INHALED KINASE INHIBITOR PEPTIDES IN LUNG” (MOERAE MATRIX, INC., priority 2017, published 2019)
